Assay results as given in the RNAGym collection of RNA variant scans (doi:10.7554/elife.80360).

B1: Hairpin Ribozyme (parent)
chain: GUCCUCUUUCACGUGCGCGUGAAAGAGAGAAGUGAACCAGAGAAACACACGUUGUGGUAUAUUACCUGGUA

Variants of: B1
Experiment: self-cleavage, relative activity (ratio to wild type); higher = more cleavage; co-transcriptional

Variant | self-cleavage
G19A U70G | 0.917
G19A U52G | 0.735
G19C A36C | 0.374
G19A A59U | 0.0875
G19C U62A | 0.228
G19C U62C | 0.283
G17U C66U | 0.537
G17U C66A | 0.233
G19U A24C | 0.79
C18G G54A | 0.51
C18G G54U | 0.449
G19C C46G | 0.088
G19C C46U | 0.229
C18G A44C | 0.164
C18G A44U | 0.135
C18U G32U | 0.118
C18U G32A | 0.124
G19C U58A | 0.569
C18U A71C | 1.33
C18U A71G | 1.09
G19U A47U | 0.211

Variant | self-cleavage
C18G A26U | 0.512
C18A A43G | 0.085
C18A G25A | 0.681
G19U G40U | 0.194
G19U G21U | 0.784
G19U C50G | 0.199
G19A A31G | 0.7
C18A A24C | 0.994
C18A A24U | 0.86
C18G A41G | 0.555
C18G A41U | 0.906
C18G C65G | 0.212
G19C A23G | 0.611
G19U C66U | 0.334
G19A G56U | 0.123
G19C A44U | 0.0473
G19A G40U | 0.179
G19A G40A | 0.226
G19C A71U | 0.722
G19C A71G | 1.07
G17U C50G | 0.192

Variant | self-cleavage
C18A A45U | 0.11
G19A A39U | 0.404
C18A G42U | 0.369
C18A G42C | 0.35
C18U U52A | 1.09
C18A G68U | 0.239
G19A U33G | 0.175
G19A U33C | 0.0941
C18U A41G | 1.04
G19A G51C | 0.702
G19A G51U | 0.881
C18A C65A | 0.957
C18G A28U | 0.5
G17U G19C | 0.846
C18G G68U | 0.171
C18U G21C | 0.883
C18U G21A | 0.833
C18U G21U | 0.814
C18G A61C | 0.201
C18G A61G | 0.152
C18G A23G | 0.84

Variant | self-cleavage
C18G A23U | 0.752
G19U A39C | 0.502
G19U A39U | 0.324
G19C G56U | 0.0712
C18G A31G | 0.549
C18G A31U | 0.165
C18G U60G | 0.483
C18G U60A | 0.9
C18G U60C | 1.02
C18G A71U | 0.698
C18A G21U | 0.669
G17U G42U | 0.343
G17U G42A | 0.152
C18A A41C | 1.21
G19C A31C | 0.143
G19C A59U | 0.19
G19C A59C | 0.225
C18A U52G | 0.86
C18A U52A | 1.07
C18U G19A | 1.08
